Test results: PMC5226681

Tests used:
[1] = TZM-bl pseudovirus neutralization; settings: glycan lost; control: wild-type CAP45
[2] = TZM-bl pseudovirus neutralization, plateau; settings: control: CAP45 pseudovirus grown normally in 293T

Substance	other: neutralisation sensitivity [1]	other: neutralisation sensitivity ([2]; glycan changed form)	further results
HIV-1 envelope glycoprotein (Env, gp160) CAP45: N276A	abolishes		
HIV-1 envelope glycoprotein (Env, gp160) CAP45: swainsonine		no change	
HIV-1 envelope glycoprotein (Env, gp160) CAP45: 293S GnTI(-/-) cells		no change	
HIV-1 envelope glycoprotein (Env, gp160) CAP45: N276D	decreases		
HIV-1 envelope glycoprotein (Env, gp160) CAP45: benzyl 2-acetamido-2-deoxy-α-D-galactopyranoside			other: neutralisation sensitivity ([2]; glycan lost): no change
HIV-1 envelope glycoprotein (Env, gp160) CAP45: N230D	no change		
HIV-1 envelope glycoprotein (Env, gp160) CAP45: N611D	decreases		
HIV-1 envelope glycoprotein (Env, gp160) CAP45: kifunensine		no change	
